Experimental findings from article PMC4579057 (Journal of molecular biology, 2015) are described below.

This data set concerns the molecule itself. The data set is described as follows: SEC. Background: In gel filtration, larger molecules generally elute earlier.

B1: APOBEC3B carboxy-terminal domain 193-CTD (Met-193 to the carboxy-terminal end) (domain or fragment)
chain: not shown
A word on the stoichiometry N: it is a count of units in the complex or per binding partner. As to B1, the “stoichiometry N” value came out at 2.
